Tests used:
DYT-TOR1A MEF EVs = assay: Quantitative LC-MS/MS proteomics of EVs from drug-treated DYT-TOR1A MEF cultures (ritonavir, salubrinal); assay type: cell-based, mouse; set-up: key to RTV Corrective Direction / RTV Corrective Direction, Grwd1 / RTV Corrective Direction, Srrm2 / RTV Corrective Direction, Rbm17 / RTV Corrective Direction, Dcaf8 / RTV Corrective Direction, Edil3 / RTV Corrective Direction, Timp3 / RTV Corrective Direction, Heatr3 / RTV Corrective Direction, Brd4 / RTV Corrective Direction, P3h4 / RTV Corrective Direction, Pacsin3 / RTV Corrective Direction, Naa50 / RTV Corrective Direction, Lpar6 / RTV Corrective Direction, Ndrg1 / RTV Corrective Direction, Kntc1 / RTV Corrective Direction, Cdk11b / RTV Corrective Direction, Sumo1 / RTV Corrective Direction, Lsm4 / RTV Corrective Direction, Hmga2 / RTV Corrective Direction, Cstf1 / RTV Corrective Direction, Tes / RTV Corrective Direction, Sbno1 / RTV Corrective Direction, Unc119b / RTV Corrective Direction, Cfdp1 / RTV Corrective Direction, Sec61b: YES = protein abundance effect opposite to DYT/WT; details: EV protein abundance; for DYT + RTV/DYT Cohen's d: ritonavir (RTV)-treated DYT vs DYT
WT MEF EVs = assay: Quantitative LC-MS/MS proteomics of EVs from ISRIB-treated WT MEF cultures; assay type: cell-based, mouse; set-up: key to ISRIB and DYT Parallel Direction / ISRIB and DYT Parallel Direction, Ctdsp1 / ISRIB and DYT Parallel Direction, Pcdh19 / ISRIB and DYT Parallel Direction, Tspan7 / ISRIB and DYT Parallel Direction, Myo1e / ISRIB and DYT Parallel Direction, Plpp3 / ISRIB and DYT Parallel Direction, Sh3bp4 / ISRIB and DYT Parallel Direction, Dnajc7 / ISRIB and DYT Parallel Direction, Drg1 / ISRIB and DYT Parallel Direction, Maea: YES = protein abundance effect similar to DYT/WT; details: EV protein abundance; for WT + ISRIB/WT Cohen's d: ISRIB-treated WT vs WT; for ISRIB and DYT Parallel Direction: WT + ISRIB vs WT, direction compared with DYT/WT

Row | Molecule | DYT + RTV/DYT Cohen's d (DYT-TOR1A MEF EVs) | WT + ISRIB/WT Cohen's d (WT MEF EVs) | ISRIB and DYT Parallel Direction (WT MEF EVs) | RTV Corrective Direction (DYT-TOR1A MEF EVs; DYT + RTV (ritonavir) vs DYT, direction compared with DYT/WT)
1 | Lnpep (protein, UniProt Q8C129 1-1025, looked up) Leucyl-cystinyl aminopeptidase: MESFTNDRLQLPRNMIENSMFEEEPDVVDLAKEPCLHPLEPDEVEYEPRGSRLLVRGLGEHEMDEDEEDYESSAKLLGMSFMNRSSGLRNSAAGYRQSPDGTCSLPSARTLVICVFVIVVAVSVIMVIYLLPRCTFTKEGCHKTNQSAELIQPVATNGKVFPWAQIRLPTAIIPLCYELSLHPNLTSMTFRGSVTISLQALQDTRDIILHSTGHNISRVTFMSAVSSQEKQVEILEYPYHEQIAVVAPEPLLTGHNYTLKIEYSANISNSYYGFYGITYTDKSNEKKYFAATQFEPLAARSAFPCFDEPAFKATFIIKITRNEHHTALSNMPKKSSVPAEEGLIQDEFSESVKMSTYLVAFIVGEMRNLSQDVNGTLVSVYAVPEKIGQVHHALDTTIKLLEFYQTYFEIQYPLKKLDLVAIPDFEAGAMENWGLLTFREETLLYDNATSSVADRKLVTKIIAHELAHQWFGNLVTMQWWNDLWLNEGFATFMEYFSVEKIFKELNSYEDFLDARFKTMRKDSLNSSHPISSSVQSSEQIEEMFDSLSYFKGASLLLMLKSYLSEDVFRHAVILYLHNHSYAAIQSDDLWDSFNEVTDKTLDVKKMMKTWTLQKGFPLVTVQRKGTELLLQQERFFLRMQPESQPSDTSHLWHIPISYVTDGRNYSEYRSVSLLDKKSDVINLTEQVQWVKVNSNMTGYYIVHYAHDDWTALINQLKRNPYVLSDKDRANLINNIFELAGLGKVPLRMAFDLIDYLKNETHTAPITEALFQTNLIYNLLEKLGHMDLSSRLVARVHKLLQNQIQQQTWTDEGTPSMRELRSALLEFACAHSLENCTTMATNLFDSWMASNGTQSLPTDVMVTVFKVGARTEKGWLFLFSMYSSMGSEAEKNKILEALASSEDVHKLYWLMKSSLDGDIIRTQKLSLIIRTVGRHFPGHLLAWDFVKENWNKLVHKFHLGSYTIQSIVAGSTHLFSTKTHLSEVQAFFENQSEATLKLRCVQEALEVIQLNIQWMVRNLKTLSQWL | −0.39 | −1.24 | YES | 
2 | Ilf3 (protein, UniProt Q9Z1X4 1-898, looked up) Interleukin enhancer-binding …: MRPMRIFVNDDRHVMAKHSSVYPTQEELEAVQNMVSHTERALKAVSDWIDEQEKGNSELSEAENMDTPPDDESKEGAGEQKAEHMTRTLRGVMRVGLVAKGLLLKGDLDLELVLLCKEKPTTALLDKVADNLAIQLTTVTEDKYEILQSVDDAAIVIKNTKEPPLSLTIHLTSPVVREEMEKVLAGETLSVNDPPDVLDRQKCLAALASLRHAKWFQARANGLKSCVIVIRVLRDLCTRVPTWGPLRGWPLELLCEKSIGTANRPMGAGEALRRVLECLASGIVMPDGSGIYDPCEKEATDAIGHLDRQQREDITQSAQHALRLAAFGQLHKVLGMDPLPSKMPKKPKNENPVDYTVQIPPSTTYAITPMKRPMEEDGEEKSPSKKKKKIQKKEEKADPPQAMNALMRLNQLKPGLQYKLISQTGPVHAPIFTMSVEVDGSNFEASGPSKKTAKLHVAVKVLQDMGLPTGAEGRDSSKGEDSAEESDGKPAIVAPPPVVEAVSNPSSVFPSDATTEQGPILTKHGKNPVMELNEKRRGLKYELISETGGSHDKRFVMEVEVDGQKFQGAGSNKKVAKAYAALAALEKLFPDTPLALEANKKKRTPVPVRGGPKFAAKPHNPGFGMGGPMHNEVPPPPNIRGRGRGGNIRGRGRGRGFGGANHGGGYMNAGAGYGSYGYSSNSATAGYSQFYSNGGHSGNAGGGGSGGGGGSSSYSSYYQGDSYNSPVPPKHAGKKPLHGGQQKASYSSGYQSHQGQQQPYNQSQYSSYGTPQGKQKGYGHGQGSYSSYSNSYNSPGGGGGSDYSYDSKFNYSGSGGRSGGNSYGSSGSSSYNTGSHGGYGTGSGGSSSYQGKQGGYSSQSNYSSPGSSQSYSGPASSYQSSQGGYSRNTEHSMNYQYR | −1.23 | −4.89 | YES | 
3 | Exoc4 (protein, UniProt O35382 2-975, looked up) Exocyst complex component 4: AAEAAGGKYRSTVSKSKDPSGLLISVIRTLSTSDDVEDRENEKGRLEEAYEKCDRDLDELIVQHYTELTTAIRTYQSITERITNSRNKIKQVKENLLSCKMLLHCKRDELRKLWIEGIEHKHVLNLLDEIENIKQVPQKLEQCMASKHYLSATDMLVSAVESLEGPLLQVEGLSDLRLELHSKKMNLHLVLIEELHRHLYIKSTSRVVQRNKEKGKMSSHGKDPSPGPLIDVSNIPTPRKFLDASQYSAAGGSSVREMNLQDVKEDLECDPEENSTLFMGILIQGLARLKKIPETVKAIKERLEQELKQIVKRSTTQVADSAYQRGESLTVDNQPRLLLELLELLFDKFNAVATAHSVVLGYLQDSVGTQLTQQEEIKLYDMADVWVKIQDVLQMLLTEYLDMKNTRTASEPSAQLSYASTGREFAAFFAKKKPQRPKNSLFKFESSSHAISMSAYLREQRRELYSRSGELQGGPDDNLIEGGGTKFVCKPGARNITVIFHPLLRFIQEIEHALGLGPAKQCPLREFLTVYIKSIFLNQVLAEINKEIEGVTKTSDPLKILANADTMKVLGVQRPLLQSTIIVEKTVQDLMNLMHDLSAYSDQFLNMVCVKLQEYKDTCSTAYRGIVQSEEKLVISASWAKDDDISRLLKSLPNWTNMAQPKQLRPKREEEEDFIRAAFGKESEVLIGNLGDKLIPPQDILRDVSDLKALANMHESLEWLAGRTKSAFSNLSTSQMLSPAQESHVNMDLPPVSEQIMQTLSELAKTFQDMADRCLLVLHLEVRVHCFHYLIPLAKEGNYAIVANVESMDYDPLVVKLNKDISAMEEAMSASLQQHKFQYIFEGLGHLISCILINGAQYFRRISESGIKKMCRNIFVLQQNLTNITMSREADLDFARQYYEMLYNTADELLNLVVDQGVKYTELEYIHALTLLHRSQTGVGDQTTQNTRLQRLKEIICEQAAIKQATKDKKITTV | 7.70 | −1.51 | YES | YES
4 | Serpinf1 (protein, UniProt P97298 20-417, looked up) Pigment epithelium-derived …: QNVPSSSEGSPVPDSTGEPVEEEDPFFKVPVNKLAAAVSNFGYDLYRLRSSASPTGNVLLSPLSVATALSALSLGAEHRTESVIHRALYYDLITNPDIHSTYKELLASVTAPEKNLKSASRIVFERKLRVKSSFVAPLEKSYGTRPRILTGNPRVDLQEINNWVQAQMKGKIARSTREMPSALSILLLGVAYFKGQWVTKFDSRKTTLQDFHLDEDRTVRVPMMSDPKAILRYGLDSDLNCKIAQLPLTGSMSIIFFLPLTVTQNLTMIEESLTSEFIHDIDRELKTIQAVLTVPKLKLSFEGELTKSLQDMKLQSLFESPDFSKITGKPVKLTQVEHRAAFEWNEEGAGSSPSPGLQPVRLTFPLDYHLNQPFLFVLRDTDTGALLFIGRILDPSST | 1.47 | −1.83 |  | 
5 | Apom (protein, UniProt Q9Z1R3 1-190, looked up) Apolipoprotein M: MFHQVWAALLSLYGLLFNSMNQCPEHSQLTALGMDDTETPEPHLGLWYFIAGAASTTEELATFDPVDNIVFNMAAGSAPRQLQLRATIRTKSGVCVPRKWTYRLTEGKGNMELRTEGRPDMKTDLFSSSCPGGIMLKETGQGYQRFLLYNRSPHPPEKCVEEFQSLTSCLDFKAFLVTPRNQEACPLSSK | 0.40 | 2.53 | YES | 
6 | Wbp2 (protein, UniProt P97765 1-261, looked up) WW domain-binding protein 2: MALNKNHSEGGGVIVNNTESILMSYDHVELTFNDMKNVPEAFKGTKKGTVYLTPYRVIFLSKGKDAMQSFMMPFYLMKDCEIKQPVFGANFIKGIVKAEAGGGWEGSASYKLTFTAGGAIEFGQRMLQVASQASRGEVPNGAYGYPYMPSGAYVFPPPVANGMYPCPPGYPYPPPPPEFYPGPPMMDGAMGYVQPPPPPYPGPMEPPVSGPSAPATPAAEAKAAEAAASAYYNPGNPHNVYMPTSQPPPPPYYPPEDKKTQ | −0.89 | −1.50 | YES | 
7 | Idua (protein, UniProt P35475 28-653, looked up) Alpha-L-iduronidase: APHLVHVDAARALWPLRRFWRSTGFCPPLPHSQADQYVLSWDQQLNLAYVGAVPHRGIKQVRTHWLLELVTTRGSTGRGLSYNFTHLDGYLDLLRENQLLPGFELMGSASGHFTDFEDKQQVFEWKDLVSSLARRYIGRYGLAHVSKWNFETWNEPDHHDFDNVSMTMQGFLNYYDACSEGLRAASPALRLGGPGDSFHTPPRSPLSWGLLRHCHDGTNFFTGEAGVRLDYISLHRKGARSSISILEQEKVVAQQIRQLFPKFADTPIYNDEADPLVGWSLPQPWRADVTYAAMVVKVIAQHQNLLLANTTSAFPYALLSNDNAFLSYHPHPFAQRTLTARFQVNNTRPPHVQLLRKPVLTAMGLLALLDEEQLWAEVSQAGTVLDSNHTVGVLASAHRPQGPADAWRAAVLIYASDDTRAHPNRSVAVTLRLRGVPPGPGLVYVTRYLDNGLCSPDGEWRRLGRPVFPTAEQFRRMRAAEDPVAAAPRPLPAGGRLTLRPALRLPSLLLVHVCARPEKPPGQVTRLRALPLTQGQLVLVWSDEHVGSKCLWTYEIQFSQDGKAYTPVSRKPSTFNLFVFSPDTGAVSGSYRVRALDYWARPGPFSDPVPYLEVPVPRGPPSPGNP | −0.08 | 0.52 |  | 
8 | Slc25a5 (protein, UniProt P51881 1-298, looked up) ADP/ATP translocase 2: MTDAAVSFAKDFLAGGVAAAISKTAVAPIERVKLLLQVQHASKQITADKQYKGIIDCVVRIPKEQGVLSFWRGNLANVIRYFPTQALNFAFKDKYKQIFLGGVDKRTQFWRYFAGNLASGGAAGATSLCFVYPLDFARTRLAADVGKAGAEREFKGLGDCLVKIYKSDGIKGLYQGFNVSVQGIIIYRAAYFGIYDTAKGMLPDPKNTHIFISWMIAQSVTAVAGLTSYPFDTVRRRMMMQSGRKGTDIMYTGTLDCWRKIARDEGSKAFFKGAWSNVLRGMGGAFVLVLYDEIKKYT | −0.78 | −0.54 | YES | 

From patent US20260266848A1, “COMPOSITIONS AND METHODS FOR DIAGNOSING AND TREATING DYSTONIA” (Duke University, priority 2023, published 2026)
